Common to all, as to assay: FP
Experiment [1] deals with P3, fluorescein-labelled proline-rich peptide from the SOS1 proline-rich domain (human) (UniProt Q07889).
In experiment [2] the target is P7, fluorescein-labelled proline-rich peptide from the SOS1 proline-rich domain (human) (UniProt Q07889).
Experiment [3] addresses RP1, fluorescein-labelled reference peptide, a SOS1 derivative encompassing part of P3 (human) (UniProt Q07889).
For experiment [4], the target named is P5, fluorescein-labelled proline-rich peptide from the SOS1 proline-rich domain (human) (UniProt Q07889).
Experiment [5] concerns the target P4, fluorescein-labelled proline-rich peptide from the SOS1 proline-rich domain (human) (UniProt Q07889).
Experiment [6] addresses RP2, fluorescein-labelled reference peptide from the N-terminal extension of the RHO GTPase WRCH1/RHOU (human) (UniProt Q7L0Q8).
In experiment [7] the target is P1, fluorescein-labelled proline-rich peptide from the SOS1 proline-rich domain (human) (UniProt Q07889).
Experiment [8] concerns the target P2, fluorescein-labelled proline-rich peptide from the SOS1 proline-rich domain (human) (UniProt Q07889).

Read-outs that look alike come from different tables or passages of the source.

Chain of RP2, fluorescein-labelled reference peptide from the N-terminal extension of the RHO GTPase WRCH1/RHOU (human) (Q7L0Q8 whole entry, looked up, the tested form may be a part): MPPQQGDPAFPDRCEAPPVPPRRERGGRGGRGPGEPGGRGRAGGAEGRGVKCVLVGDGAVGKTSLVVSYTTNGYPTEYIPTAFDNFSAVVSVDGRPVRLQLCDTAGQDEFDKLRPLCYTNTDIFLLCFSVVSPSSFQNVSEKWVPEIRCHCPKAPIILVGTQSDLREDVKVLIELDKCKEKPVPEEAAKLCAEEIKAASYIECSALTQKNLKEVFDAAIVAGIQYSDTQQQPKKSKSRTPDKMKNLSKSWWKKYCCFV
Chain of CRK-1 SH3 domain, GST cleaved (P46108 127-301): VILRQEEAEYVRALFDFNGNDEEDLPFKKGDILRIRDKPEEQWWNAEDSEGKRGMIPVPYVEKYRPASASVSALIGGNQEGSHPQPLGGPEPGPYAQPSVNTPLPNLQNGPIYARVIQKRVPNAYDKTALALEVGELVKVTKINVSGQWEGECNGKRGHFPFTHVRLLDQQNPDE

Take “CRK-1 SH3 domain, GST cleaved (from UniProt P46108)”: the results for the dissociation constant Kd in experiment [1] (domain or fragment) and in experiment [2] (domain or fragment) were 12.9 µM and 18.1 µM, respectively.
On to GRB2-1, for which the Kd turned out to be 15 µM in experiment [1], 11 µM in experiment [3], 62 µM in experiment [4] and 60 µM in experiment [5].
For GRB2-2, in that order: 12 µM, 3.4 µM, 35 µM and 20 µM.
With ITSN1-1, the Kd was found to be 11 µM in experiment [6], 39 µM in experiment [3] and 6.6 µM in experiment [5].
Consider ITSN1-5, for which the values for the Kd in experiment [6], in experiment [7] and in experiment [5] were 23 µM, 23 µM and 12 µM, respectively.
With RIMBP3B-1, the Kd in experiment [2] was 15 µM; in experiment [8], 21 µM.
Consider SH3PXD2A-1, for which the Kd worked out at 21 µM in experiment [6], 18 µM in experiment [1] and 44 µM in experiment [8].
SORBS1-1 returned a Kd in experiment [2] of 13.2 µM.
Regarding SRC, the Kd worked out at 2 µM in experiment [1] and 13.3 µM in experiment [2].

Usually Kd stands for the constant that tells how readily two partners part at equilibrium. Read a low Kd as a tighter complex.

Source of the values: article PMC10814857, “Functional Classification and Interaction Selectivity Landscape of the Human SH3 Domain Superfamily” (Cells, 2024).
